This note sets out measurements from publication doi:10.1101/2023.01.09.523197 (bioRxiv, 2023).

The data set deals with the molecule itself. As to the kind of experiment: crystal structure.

B1: Saccharopolyspora erythraea GlnR-DBD (domain or fragment)
chain: DGMLTVGDLVIEESTYTARLKGRALELTYKEFELLKYLAQHAGRVFTRAQLLQEVWGYDFFGGTRTVDVHVRRLRAKLGPEYDSMIGTVRNVGYKFVRPS
Take B1: the binding result is on record as “binds”.
